Like-named read-outs stand apart in the source and are kept apart here.
T1: human CD3 expressed on cells (Jurkat, a CD3+ human T-cell line; human T cells) (human, UniProt P07766 23-126; P04234 22-100)
T1 chain 1: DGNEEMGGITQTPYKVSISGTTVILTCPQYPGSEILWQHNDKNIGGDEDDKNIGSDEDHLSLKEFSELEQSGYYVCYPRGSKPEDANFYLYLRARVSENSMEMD
T1 chain 2: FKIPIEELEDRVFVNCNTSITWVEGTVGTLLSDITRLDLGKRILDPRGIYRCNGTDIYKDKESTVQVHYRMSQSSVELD


Key:
[1] = target: T1, human CD3 expressed on cells (Jurkat, a …); assay: cell-based or functional assay
[2] = target: T1, human CD3 expressed on cells (Jurkat, a …); assay: cell-based or functional assay

| Binder | U937 Cytotoxicity Human T-cells [M] (EC50) [1] | U937 Cytotoxicity Human T-cells [M] (EC50) [2] |
| --- | --- | --- |
| H1M3549N (antibody, mouse IgG1, V domains shown) VH: EVQLVESGGGLVQPGRSLRLSCVASGFPFADYTMHWVRQAPGKGLEWVSDISWNSGSIGYADSVKGRFTISRDNAKNSLYLQMNSLRTEDTALYYCAKDMSGYAHYFYYGMDVWGQGTTVTVSS VL: not shown | 1.07e-10 | – |
| H1M3613N (antibody, mouse IgG1, V domains shown) VH: EVQLVESGGGLVQPGRSLKLSCTASGFTFADYTMHWVRQGPGKGLEWVSDISWNSGSKGYADSVKGRFTISRDNAKNSLYLQMNSLRTEDTALYYCAKDMSGYAHYYYYALDVWGQGTTVTVSS VL: not shown | 8.66e-10 | – |
| H2M3563N (antibody, mouse IgG2, V domains shown) VH: EVHLVESGGGLVQPGRSLRLSCAASGFTFDDYTMHWVRQAPGKGLEWVSDISWNSGSIGYADSVKGRFTVSRDNAKNSLYLQMNSLRGEDTALYYCAKDMSGYGHYGKYGMDVWGQGTTVTVSS VL: DIQMTQSPSSLSASVGDRVTITCRASQSIRSYLNWYQQKPGKVPKLLIYAASSLQSGVPSRFSGSGSGTDFTLTINSLQPDDFATYYCQQTYSNPPITFGQGTRLEIK | 4.05e-11 | – |
| H1H5786B (antibody, human IgG1, V domains shown) VH: QVQLVESGAEVKKPGASVKVSCKTSGYTFTGYYMHWIRQAPGQGLEWMGWINPKSGGTNYAQKFQGRVTMTRDTSISTAYMELSRLRSDDMAVYYCARMGDGAVFDFWGQGTLVTVSS VL: AIQMTQSPSSLSASVGDRVTITCRASQRISSFLNWYQQKPGKAPKLLIYTASNLQNGVPSRFSGSGSGTDFTLTISSLQPEDFATYYCQQSYRTPLTFGGGTKVEIKR | – | 6.1e-11 |
| H1H5798B (antibody, human IgG1, V domains shown) VH: QVQLVQSGGGLVKPGGSLRLSCAASGFTFSSYDMSWVRQAPGKGLEWVSYISSSGNTIHYADSVKGRFTISRDNSKNSLYLQMNSLRAEDTAVYYCAKAGPATVTRRYYYYYGLDVWGQGTTVTVSS VL: DIVMTQSPSSLSASVRDRVTITCRASQRISSYLNWFQQKPGKAPKVLIYTASSLQNGVPSRFSGSGSGTDFTLTISSLQPEDFATYYCQQSYRTPLTFGGGTKVEIKR | – | 1.81e-10 |
| H1H5795B (antibody, human IgG1, V domains shown) VH: EVQLVESGAEVKKPGASVKVSCKTSGYSFIGYYIHWMRQAPGQGLEWMGWINPKSGVTNYAQRFQGRVTMTRDTSISTAYMELSRLKSDDTAVYFCARMGDGAVFDFWGQGTLVTVSS VL: DIQLTQSPSSLSASVGDRVTITCRASQRISSFLNWYQQKPGKVPKLLIYTASNLQNGVPSRFSGTGSGTDFTLTISSLQPEDFATYYCQQSYRTPLTFGGGTKVDIKR | – | 6.74e-11 |
| H1H5790B (antibody, human IgG1, V domains shown) VH: EVQLVESGGGVVQPGRSLRLSCAASGFTFSYYGMHWVRQAPGKGLEWVAVISFDGKNKYYADSVMGRFTISRDNSKNTLYLQMNSLRAEDSAVFFCARSYDILTGYGAGYSYHYGMDVWGQGTTVTVSS VL: AIQMTQSPSSLSASVGDRVTITCRASQRISSFLNWYQQKPGKAPKLLIYTASNLQNGVPSRFSGSGSGTDFTLTISSLQPEDFATYYCQQSYRTPLTFGGGTKVEIKR | – | 8.71e-11 |
| H1H5792B (antibody, human IgG1, V domains shown) VH: QVQLVESGGGVVQPGRSLRLSCAASGFTFSSYGMHWVRQAPGKGLEWVSTISFDGSNKYYADSVKGRFTISRDNSKNTLYLQMNSLRPEDTAVYYCAKGGGTSGSYFYYGMDVWGQGTTVTVSS VL: AIQMTQSPSSLSASVGDRVTITCRASQRISSFLNWYQQKPGKAPKLLIYTASNLQNGVPSRFSGSGSGTDFTLTISSLQPEDFATYYCQQSYRTPLTFGGGTKLEIKR | – | 1.4e-10 |
| H1H5791B (antibody, human IgG1, V domains shown) VH: QVQLVESGAEVKKPGASVKVSCKTSGYTLSGYYMHWMRQAPGQGLEWMGWINPKSGVTNYAQKFQDRVAMTRDTSISTAYMELSRLRSDDTAVYYCARMGDGAVFDFWAQGTLVTVSS VL: DIQLTQSPSSLSASVGDRVTITCRASQRISSFLNWYQQKPGKAPKLLIYTASNLQNGVPSRFSGSGSGTDFTLTISSLQPEDFATYYCQQSYRTPLTFGGGTKLEIKR | – | 8.01e-11 |
| H1H5772S (antibody, human IgG1, V domains shown) VH: QVQLVESGGGLVQPGRSLRLSCAASGFSFDDYAMHWVRQAPGQGLEWVSGISWNGGSRDYADSVKGRFTISRDNARNSLFLQMNSLFTEDTALYYCAKDKSGYGSYFYGMDVWGQGTTVTVSS VL: EIVLTQSPGILSLSPGDRATLSCRASQSIRNIYLAWYQQKPGQAPRLLIHGASTRATGIPDRFSGSGSGTDFTLTISRLEPEDFAVYYCQQRVSSPYTFGQGTKLEIK | – | 6.89e-13 |
| H1H5782P (antibody, human IgG1, V domains shown) VH: EVQLVESGGGLVQPGRSLRLSCAASGFTFDDYAMHWVRQAPGKGLEWVSGISWNSGSKDYADSVKGRFTISRDNTRNSLFLQMNSLRTEDTALYYCAKDKSGYGSFYYGMDVWGQGTTVTVSS VL: not shown | – | 5.18e-12 |
| H1H5781P (antibody, human IgG1, V domains shown) VH: EVQLVESGGGLVQPGRSLRLSCAASGFTFDDFTMHWVRQAPGKGLEWVSDISWNSGSIDYADSVKGRFTISRDNARNSLFLQMSSLRTEDTASYYCIKDKSGYGSYNYGLDVWGQGTTVTVSS VL: EIVLTQSPGTLSLSPGDRATLSCRASQSVSSIYLAWYQQKPGQAPRLLIHGASTRATGIPDRFSGSGSGTDFTLTISRLEPEDFALYYCHQRVSSPYTFGQGTKLEIK | – | 1.83e-12 |
| H1H5780P (antibody, human IgG1, V domains shown) VH: EVQLVESGGGLVQPGRSLRLSCAASGFTFDDYAMHWVRQAPGKGLEWVSGISWNGGSKDYADSVKGRFTISRDNTRNSLSLQMNSLRIEDTALYYCAKDKSGYGSFYYGLDVWGQGTTVTVSS VL: EIVLTQSPGTLSLSPGDRATLSCRASQSIRSIYLAWYQQKPGQAPRLLIHGASTRATGIPDRFSGSGSGTDFTLTISRLEPEDFAVYYCQQRVSSPYTFGQGTKLEIK | – | 4.03e-12 |
| H1H5778P (antibody, human IgG1, V domains shown) VH: EVQLVESGGGLVQPGRSLRLSCVASGFTFADFTMHWVRQAPGKGLEWVSGISWNSNSIDYADSVKGRFTISRDNAKKSLFLQMSSLRAEDTALYYCVKDRSGYSRFYYGMDVWGQGTTVTVSS VL: EIVMTQSPATLSVSPGERAILSCRASQNINSNLAWYQQKPGQAPRLLIYGASTRATGVPARFSGSGSGTEFTLTIRSLQSEDFAVYYCQQYYNWPITFGHGTRLEIK | – | 3.41e-13 |
| H1H5755B (antibody, human IgG1, V domains shown) VH: EVQLVESGGGVVQPGRSLRLSCAASGFTFSNYGMHWVRQAPGKGLEWVTVILHDGSYKYYADSVKGRFTISRDNSKNTLHLQMNSLRTEDTAVYYCAKGPMFRGVPYNHYYGMDVWGQGTTVTVSS VL: DIQMTQSPSSLSASVGDRVTITCRASQGIRNDLGWYQQKPGKAPKRLIYAASSLQSGVSSRFSGSGSGTEFTLTISSLQPEDFATYYCLQHNSYPYTFGQGTKVEIKR | – | 5.16e-11 |
| H1H5757B (antibody, human IgG1, V domains shown) VH: EVQLVESGGGVVQPGRSLRLSCAASGFTFSSYGMHWVRQAPGKGLEWVTVILHDGSNRYSADSVKGRFTISRDNSKNTLYLQMNILRVEDTAVYYCTKGAMVRGVPYNHYYGMDVWGQGTTVTVSS VL: DIQMTQSPSSLSASVGDRVTITCRASQGIRNDLGWYQQKPGKAPKRLIYAASILQSGVPSRFSGSGSGTEFTLTISSLQPEDFATYYCLQHNSYPYTFGQGTKLEIKR | – | 9.65e-11 |
| H1H5758B (antibody, human IgG1, V domains shown) VH: EVQLVESGGGVVQPGRSLRLSCAASGFTFSSYGMHWVRQAPGKGLEWVTVILHDGSNRYYADSVKGRFTISRDNSKNTLYLQMNILRAEDTAVYYCTKGAMVRGVPYNHYYGMDVWGQGTTVTVSS VL: DIVMTQSPSSLSASVGDRVTITCRASQGIRNDLGWYQQKPGKAPKRLIYAASNLQSGVPSRFSGSGSGTEFTLTISSLQPEDFATYYCLQHNSYPYTFGQGTKLEIKR | – | 8.86e-08 |
| H1H5788P (antibody, V domains shown) VH: EVQLVESGGGLVQPGRSLRLSCAASGFTFDDYTMHWVRQAPGKGLEWVSGISWNSGSIGYADSVKGRFTISRDNAKNSLYLQMNSLRAEDTALFYCAKDQSGYGHYYYGMDVWGQGTTVTVSS VL: EIVMTQSPATLSVSPGERATLSCRASQSVSSNLAWYQQKPGQAPRLLIYGASTRATDIPARFSGSGSGTEFTLTISSLQSEDFAVYHCQQYNNWPLTFGGGTKVEIK | – | 1.54e-11 |
| H1H5752P (antibody, human IgG1, V domains shown) VH: QVQLVESGGGVVQPGRSLRPSCAASGFSFRDYGMHWVRQAPGKGLEWMAHIWYNGKNKYYADSVKGRFTISRDNSKNTLYLQMNSLRPEDTAVYYCARDGVSARGTPFDYWGQGTLVTVSS VL: ETTLTQSPAFMSAAPGDKVSISCIASQYIDDDVNWYQQKPGETAIFIIQEASTLVPGISPRFSGSGYGTHFTLTINNIDSEDAAFYFCLQHDNFPYTFGQGTKLEIK | – | 1.85e-11 |
| H1H5793B (antibody, human IgG1, V domains shown) VH: QVQLVQSGTEVKKPGASMKVSCKASGYTFTGYYIHWVRQAPGQGLEWMGWINPNSDVTKYAQKFQGRVTLTRDTSISAAYIDLSRLRSDDTAIYYCARMGDGAVFDYWGQGTLVTVSS VL: DIQLTQSPSSLSASVGDRVTITCRASQRISSYLNWYQQKPGKAPKVLISVASSLQSGVPSRFSGSGFGTDFTLTISSLQPEDSASYYCQQSYNTPLTFGGGTKLEIKR | – | 8.85e-11 |
| H1H5797B (antibody, human IgG1, V domains shown) VH: QVQLVQSGTEVKKPGASVKVSCKASGYTFTGYYMHWVRQAPGQGLEWMGWINPNSDVTNYAQKFQGRVTLTRDTSISTAYIDLSRLRSDDTAIYYCARMGDGAVFDYWGQGTLVTVSS VL: DIQMTQSPSSLSASVGDRVTITCRASQRISSYLNWYQQKPGKAPKVLISVASSLQSGVPSRFSGSGSGTDFTLTISSLQPEDFASYYCQQSYNTPLTFGGGTKVEIKR | – | 5.76e-10 |
